Assay results published in US20240409653A1 (Genmab, published 2024).

Biological target: Human PD-L1 (human, UniProt Q9NZQ7 19-290)
Experiment: cell-based or functional assay

Human PD-L1, sequence (Q9NZQ7 19-290): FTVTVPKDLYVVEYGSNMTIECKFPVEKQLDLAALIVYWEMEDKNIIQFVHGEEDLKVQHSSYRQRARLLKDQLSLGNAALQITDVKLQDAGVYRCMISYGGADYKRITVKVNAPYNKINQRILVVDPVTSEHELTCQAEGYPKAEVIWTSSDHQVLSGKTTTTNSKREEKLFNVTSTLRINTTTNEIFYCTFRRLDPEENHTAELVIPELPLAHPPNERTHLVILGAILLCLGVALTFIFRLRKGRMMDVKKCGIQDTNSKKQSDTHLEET

EC50 value [µg/ml], CD8+ T-cell expansion, donor 02: 0.00523 µg/mL
EC50 value [µg/ml], CD8+ T-cell expansion, donor 28: 0.00754 µg/mL
EC50 value [µg/ml], CD8+ T-cell expansion, donor 72: 0.00506 µg/mL
EC50 value [µg/ml], CD8+ T-cell expansion, donor 89: 0.00776 µg/mL
EC50 value [µg/ml], CD8+ T-cell expansion, mean of donors: 0.0064 µg/mL
B1: GEN1046 (bispecific antibody, human IgG1, kappa, lambda)
heavy 1: EVQLVESGGGLVQPGRSLRLSCTASGFSLNDYWMSWVRQAPGKGLEWVGYIDVGGSLYYAASVKGRFTISRDDSKSIAYLQMNSLKTEDTAVYYCARGGLTYGFDLWGQGTLVTVSSASTKGPSVFPLAPSSKSTSGGTAALGCLVKDYFPEPVTVSWNSGALTSGVHTFPAVLQSSGLYSLSSVVTVPSSSLGTQTYICNVNHKPSNTKVDKRVEPKSCDKTHTCPPCPAPEFEGGPSVFLFPPKPKDTLMISRTPEVTCVVVAVSHEDPEVKFNWYVDGVEVHNAKTKPREEQYNSTYRVVSVLTVLHQDWLNGKEYKCKVSNKALPAPIEKTISKAKGQPREPQVYTLPPSREEMTKNQVSLTCLVKGFYPSDIAVEWESNGQPENNYKTTPPVLDSDGSFFLYSRLTVDKSRWQQGNVFSCSVMHEALHNHYTQKSLSLSPG
light 1: DIVMTQSPSSLSASVGDRVTITCQASEDISSYLAWYQQKPGKAPKRLIYGASDLASGVPSRFSASGSGTDYTFTISSLQPEDIATYYCHYYATISGLGVAFGGGTKVEIKRTVAAPSVFIFPPSDEQLKSGTASVVCLLNNFYPREAKVQWKVDNALQSGNSQESVTEQDSKDSTYSLSSTLTLSKADYEKHKVYACEVTHQGLSSPVTKSFNRGEC
heavy 2: EVQLLEPGGGLVQPGGSLRLSCEASGSTFSTYAMSWVRQAPGKGLEWVSGFSGSGGFTFYADSVRGRFTISRDSSKNTLFLQMSSLRAEDTAVYYCAIPARGYNYGSFQHWGQGTLVTVSSASTKGPSVFPLAPSSKSTSGGTAALGCLVKDYFPEPVTVSWNSGALTSGVHTFPAVLQSSGLYSLSSVVTVPSSSLGTQTYICNVNHKPSNTKVDKRVEPKSCDKTHTCPPCPAPEFEGGPSVFLFPPKPKDTLMISRTPEVTCVVVAVSHEDPEVKFNWYVDGVEVHNAKTKPREEQYNSTYRVVSVLTVLHQDWLNGKEYKCKVSNKALPAPIEKTISKAKGQPREPQVYTLPPSREEMTKNQVSLTCLVKGFYPSDIAVEWESNGQPENNYKTTPPVLDSDGSFLLYSKLTVDKSRWQQGNVFSCSVMHEALHNHYTQKSLSLSPG
light 2: SYVLTQPPSVSVAPGQTARITCGGNNIGSKSVHWYQQKPGQAPVLVVYDDNDRPSGLPERFSGSNSGNTATLTISRVEAGDEADYYCQVWDSSSDHVVFGGGTKLTVLGQPKAAPSVTLFPPSSEELQANKATLVCLISDFYPGAVTVAWKADSSPVKAGVETTTPSKQSNNKYAASSYLSLTPEQWKSHRSYSCQVTHEGSTVEKTVAPTECS
